Columns and labels:
[1] = GFP scoring of intestinal nuclei, oga-1 background; conditions: glycan lost; control: SKN-1B/C::GFP in oga-1(ok1207)
[2] = survival on 9.125 mM tBHP, skn-1(zu67) background; conditions: glycan lost; control: skn-1(zu67) expressing SKN-1B/C::GFP
[3] = worm lifespan at 20 °C, skn-1(zu67) background; conditions: glycan lost; control: skn-1(zu67) expressing SKN-1B/C::GFP
[4] = worm lifespan at 20 °C, N2 background; conditions: glycan lost; control: N2 expressing SKN-1B/C::GFP
[5] = survival on 9.125 mM tBHP, N2 background; conditions: glycan lost; control: N2 expressing SKN-1B/C::GFP
[6] = GFP scoring of intestinal nuclei, gsk-3 RNAi; conditions: glycan lost, control: SKN-1B/C::GFP worms
[7] = GFP scoring of intestinal nuclei, tBHP
[8] = in vitro kinase assay, anti-phosphoserine blot; conditions: glycan lost; control: wild type GST-SKN-1(321–623aa) co-expressed with HIS-OGT-1
[9] = anti-phospho-SKN-1(Ser483) blot; conditions: glycan gained; control: wild type worms
[10] = SKN-1 expression in ASI neurons; conditions: control: wild type worms
[11] = GFP scoring of intestinal nuclei, normal condition; conditions: control: N2 expressing SKN-1B/C::GFP, untreated

B1: SKN-1: S470A/T493A (protein)
parent chain: MGGSSRRQRSTSATRRDDKRRRRQCFSSVADDEEETTSIYGVSSIFIWILATSSLILVISSPSSNTSIQSSSYDRITTKHLLDNISPTFKMYTDSNNRNFDEVNHQHQQEQDFNGQSKYDYPQFNRPMGLRWRDDQRMMEYFMSNGPVETVPVMPILTEHPPASPFGRGPSTERPTTSSRYEYSSPSLEDIDLIDVLWRSDIAGEKGTRQVAPADQYECDLQTLTEKSTVAPLTAEENARYEDLSKGFYNGFFESFNNNQYQQKHQQQQREQIKTPTLEHPTQKAELEDDLFDEDLAQLFEDVSREEGQLNQLFDNKQQHPVINNVSLSEGIVYNQANLTEMQEMRDSCNQVSISTIPTTSTAQPETLFNVTDSQTVEQWLPTEVVPNDVFPTSNYAYIGMQNDSLQAVVSNGQIDYDHSYQSTGQTPLSPLIIGSSGRQQQTQTSPGSVTVTATATQSLFDPYHSQRHSFSDCTTDSSSTCSRLSSESPRYTSESSTGTHESRFYGKLAPSSGSRYQRSSSPRSSQSSIKIARVVPLASGQRKRGRQSKDEQLASDNELPVSAFQISEMSLSELQQVLKNESLSEYQRQLIRKIRRRGKNKVAARTCRQRRTDRHDKMSHYI
- localisation_or_trafficking [1]: decreases
- other: oxidative stress resistance conferred by transgene [2]: abolishes
- other: lifespan extension by transgene [3]: abolishes
- other: lifespan extension by transgene [4]: abolishes
- other: oxidative stress resistance conferred by transgene [5]: abolishes
- localisation_or_trafficking [6]: decreases
- localisation_or_trafficking ([7]; glycan lost, control: SKN-1B/C::GFP in N2, tBHP-treated): decreases
- other: phosphorylation by GSK-3 [8]: increases

B2: SKN-1: without HIS-OGT-1 (protein)
parent chain: MGGSSRRQRSTSATRRDDKRRRRQCFSSVADDEEETTSIYGVSSIFIWILATSSLILVISSPSSNTSIQSSSYDRITTKHLLDNISPTFKMYTDSNNRNFDEVNHQHQQEQDFNGQSKYDYPQFNRPMGLRWRDDQRMMEYFMSNGPVETVPVMPILTEHPPASPFGRGPSTERPTTSSRYEYSSPSLEDIDLIDVLWRSDIAGEKGTRQVAPADQYECDLQTLTEKSTVAPLTAEENARYEDLSKGFYNGFFESFNNNQYQQKHQQQQREQIKTPTLEHPTQKAELEDDLFDEDLAQLFEDVSREEGQLNQLFDNKQQHPVINNVSLSEGIVYNQANLTEMQEMRDSCNQVSISTIPTTSTAQPETLFNVTDSQTVEQWLPTEVVPNDVFPTSNYAYIGMQNDSLQAVVSNGQIDYDHSYQSTGQTPLSPLIIGSSGRQQQTQTSPGSVTVTATATQSLFDPYHSQRHSFSDCTTDSSSTCSRLSSESPRYTSESSTGTHESRFYGKLAPSSGSRYQRSSSPRSSQSSIKIARVVPLASGQRKRGRQSKDEQLASDNELPVSAFQISEMSLSELQQVLKNESLSEYQRQLIRKIRRRGKNKVAARTCRQRRTDRHDKMSHYI
- other: phosphorylation by GSK-3 [8]: increases

B3: SKN-1: oga-1 loss (protein)
parent chain: MGGSSRRQRSTSATRRDDKRRRRQCFSSVADDEEETTSIYGVSSIFIWILATSSLILVISSPSSNTSIQSSSYDRITTKHLLDNISPTFKMYTDSNNRNFDEVNHQHQQEQDFNGQSKYDYPQFNRPMGLRWRDDQRMMEYFMSNGPVETVPVMPILTEHPPASPFGRGPSTERPTTSSRYEYSSPSLEDIDLIDVLWRSDIAGEKGTRQVAPADQYECDLQTLTEKSTVAPLTAEENARYEDLSKGFYNGFFESFNNNQYQQKHQQQQREQIKTPTLEHPTQKAELEDDLFDEDLAQLFEDVSREEGQLNQLFDNKQQHPVINNVSLSEGIVYNQANLTEMQEMRDSCNQVSISTIPTTSTAQPETLFNVTDSQTVEQWLPTEVVPNDVFPTSNYAYIGMQNDSLQAVVSNGQIDYDHSYQSTGQTPLSPLIIGSSGRQQQTQTSPGSVTVTATATQSLFDPYHSQRHSFSDCTTDSSSTCSRLSSESPRYTSESSTGTHESRFYGKLAPSSGSRYQRSSSPRSSQSSIKIARVVPLASGQRKRGRQSKDEQLASDNELPVSAFQISEMSLSELQQVLKNESLSEYQRQLIRKIRRRGKNKVAARTCRQRRTDRHDKMSHYI
- other: Ser483 phosphorylation [9]: decreases
- expression_or_secretion ([10]; glycan gained): no change

B4: SKN-1: ogt-1(ok1474) (protein)
parent chain: MGGSSRRQRSTSATRRDDKRRRRQCFSSVADDEEETTSIYGVSSIFIWILATSSLILVISSPSSNTSIQSSSYDRITTKHLLDNISPTFKMYTDSNNRNFDEVNHQHQQEQDFNGQSKYDYPQFNRPMGLRWRDDQRMMEYFMSNGPVETVPVMPILTEHPPASPFGRGPSTERPTTSSRYEYSSPSLEDIDLIDVLWRSDIAGEKGTRQVAPADQYECDLQTLTEKSTVAPLTAEENARYEDLSKGFYNGFFESFNNNQYQQKHQQQQREQIKTPTLEHPTQKAELEDDLFDEDLAQLFEDVSREEGQLNQLFDNKQQHPVINNVSLSEGIVYNQANLTEMQEMRDSCNQVSISTIPTTSTAQPETLFNVTDSQTVEQWLPTEVVPNDVFPTSNYAYIGMQNDSLQAVVSNGQIDYDHSYQSTGQTPLSPLIIGSSGRQQQTQTSPGSVTVTATATQSLFDPYHSQRHSFSDCTTDSSSTCSRLSSESPRYTSESSTGTHESRFYGKLAPSSGSRYQRSSSPRSSQSSIKIARVVPLASGQRKRGRQSKDEQLASDNELPVSAFQISEMSLSELQQVLKNESLSEYQRQLIRKIRRRGKNKVAARTCRQRRTDRHDKMSHYI
- localisation_or_trafficking ([7]; glycan lost, control: N2 expressing SKN-1B/C::GFP, tBHP-treated): decreases
- localisation_or_trafficking ([11]; glycan lost): no change

B5: SKN-1: T493A (protein)
parent chain: MGGSSRRQRSTSATRRDDKRRRRQCFSSVADDEEETTSIYGVSSIFIWILATSSLILVISSPSSNTSIQSSSYDRITTKHLLDNISPTFKMYTDSNNRNFDEVNHQHQQEQDFNGQSKYDYPQFNRPMGLRWRDDQRMMEYFMSNGPVETVPVMPILTEHPPASPFGRGPSTERPTTSSRYEYSSPSLEDIDLIDVLWRSDIAGEKGTRQVAPADQYECDLQTLTEKSTVAPLTAEENARYEDLSKGFYNGFFESFNNNQYQQKHQQQQREQIKTPTLEHPTQKAELEDDLFDEDLAQLFEDVSREEGQLNQLFDNKQQHPVINNVSLSEGIVYNQANLTEMQEMRDSCNQVSISTIPTTSTAQPETLFNVTDSQTVEQWLPTEVVPNDVFPTSNYAYIGMQNDSLQAVVSNGQIDYDHSYQSTGQTPLSPLIIGSSGRQQQTQTSPGSVTVTATATQSLFDPYHSQRHSFSDCTTDSSSTCSRLSSESPRYTSESSTGTHESRFYGKLAPSSGSRYQRSSSPRSSQSSIKIARVVPLASGQRKRGRQSKDEQLASDNELPVSAFQISEMSLSELQQVLKNESLSEYQRQLIRKIRRRGKNKVAARTCRQRRTDRHDKMSHYI
- other: phosphorylation by GSK-3 [8]: increases

B6: SKN-1: oga-1(ok1207) (protein)
parent chain: MGGSSRRQRSTSATRRDDKRRRRQCFSSVADDEEETTSIYGVSSIFIWILATSSLILVISSPSSNTSIQSSSYDRITTKHLLDNISPTFKMYTDSNNRNFDEVNHQHQQEQDFNGQSKYDYPQFNRPMGLRWRDDQRMMEYFMSNGPVETVPVMPILTEHPPASPFGRGPSTERPTTSSRYEYSSPSLEDIDLIDVLWRSDIAGEKGTRQVAPADQYECDLQTLTEKSTVAPLTAEENARYEDLSKGFYNGFFESFNNNQYQQKHQQQQREQIKTPTLEHPTQKAELEDDLFDEDLAQLFEDVSREEGQLNQLFDNKQQHPVINNVSLSEGIVYNQANLTEMQEMRDSCNQVSISTIPTTSTAQPETLFNVTDSQTVEQWLPTEVVPNDVFPTSNYAYIGMQNDSLQAVVSNGQIDYDHSYQSTGQTPLSPLIIGSSGRQQQTQTSPGSVTVTATATQSLFDPYHSQRHSFSDCTTDSSSTCSRLSSESPRYTSESSTGTHESRFYGKLAPSSGSRYQRSSSPRSSQSSIKIARVVPLASGQRKRGRQSKDEQLASDNELPVSAFQISEMSLSELQQVLKNESLSEYQRQLIRKIRRRGKNKVAARTCRQRRTDRHDKMSHYI
- localisation_or_trafficking ([7]; glycan gained, control: N2 expressing SKN-1B/C::GFP, tBHP-treated): increases
- localisation_or_trafficking ([11]; glycan gained): increases

B7: SKN-1: ogt-1 loss (protein)
parent chain: MGGSSRRQRSTSATRRDDKRRRRQCFSSVADDEEETTSIYGVSSIFIWILATSSLILVISSPSSNTSIQSSSYDRITTKHLLDNISPTFKMYTDSNNRNFDEVNHQHQQEQDFNGQSKYDYPQFNRPMGLRWRDDQRMMEYFMSNGPVETVPVMPILTEHPPASPFGRGPSTERPTTSSRYEYSSPSLEDIDLIDVLWRSDIAGEKGTRQVAPADQYECDLQTLTEKSTVAPLTAEENARYEDLSKGFYNGFFESFNNNQYQQKHQQQQREQIKTPTLEHPTQKAELEDDLFDEDLAQLFEDVSREEGQLNQLFDNKQQHPVINNVSLSEGIVYNQANLTEMQEMRDSCNQVSISTIPTTSTAQPETLFNVTDSQTVEQWLPTEVVPNDVFPTSNYAYIGMQNDSLQAVVSNGQIDYDHSYQSTGQTPLSPLIIGSSGRQQQTQTSPGSVTVTATATQSLFDPYHSQRHSFSDCTTDSSSTCSRLSSESPRYTSESSTGTHESRFYGKLAPSSGSRYQRSSSPRSSQSSIKIARVVPLASGQRKRGRQSKDEQLASDNELPVSAFQISEMSLSELQQVLKNESLSEYQRQLIRKIRRRGKNKVAARTCRQRRTDRHDKMSHYI
- expression_or_secretion ([10]; glycan lost): no change
